Phage ELISA signal data for three molecules are collected here from patent US20260028399A1.

Experiment [1] concerns the target T1, human TIGIT (human) (UniProt Q495A1).
T1 sequence: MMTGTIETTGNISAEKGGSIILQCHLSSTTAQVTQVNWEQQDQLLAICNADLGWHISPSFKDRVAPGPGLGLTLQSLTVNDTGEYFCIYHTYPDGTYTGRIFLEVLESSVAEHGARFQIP
The experiment in a line: phage ELISA on coated TIGIT (4 ug/ml), phage 1.5 x 10^9 pfu/ml, anti-M13-HRP/TMB.

In experiment [2] the target is T2, human CD96 (human) (UniProt P40200).
T2 sequence: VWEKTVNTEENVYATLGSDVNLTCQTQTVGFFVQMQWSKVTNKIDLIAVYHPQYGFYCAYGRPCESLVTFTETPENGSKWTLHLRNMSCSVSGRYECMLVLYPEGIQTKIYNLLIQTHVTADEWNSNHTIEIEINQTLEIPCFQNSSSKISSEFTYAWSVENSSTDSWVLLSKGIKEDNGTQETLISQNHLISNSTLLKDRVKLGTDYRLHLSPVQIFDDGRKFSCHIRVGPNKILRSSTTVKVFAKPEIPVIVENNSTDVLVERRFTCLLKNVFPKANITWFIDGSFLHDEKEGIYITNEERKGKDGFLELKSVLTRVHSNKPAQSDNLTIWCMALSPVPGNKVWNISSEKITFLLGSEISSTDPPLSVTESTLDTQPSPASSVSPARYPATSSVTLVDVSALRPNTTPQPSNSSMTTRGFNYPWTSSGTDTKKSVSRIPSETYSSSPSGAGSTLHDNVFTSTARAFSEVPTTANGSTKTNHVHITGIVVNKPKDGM
The experiment in a line: phage ELISA on coated CD96 (4 ug/ml), phage 4.8 x 10^8 pfu/ml (so in the source), anti-M13-HRP/TMB. Background: ELISA stands for enzyme-linked immunosorbent assay.

Experiment [3] deals with T2, human CD96 (human). The experiment in a line: phage ELISA on coated CD96 (4 ug/ml), phage 9 x 10^7 pfu/ml, anti-M13-HRP/TMB.
The target in experiment [4] is T1, human TIGIT (human). The experiment is described as follows: phage ELISA on coated TIGIT (4 ug/ml), phage 3 x 10^9 pfu/ml, anti-M13-HRP/TMB.
Experiment [5] addresses T2, human CD96 (human). The experiment in a line: phage ELISA on coated CD96 (4 ug/ml), phage 6 x 10^9 pfu/ml, anti-M13-HRP/TMB.
Experiment [6] addresses T1, human TIGIT (human). The experiment in a line: phage ELISA on coated TIGIT (4 ug/ml), phage 4.8 x 10^8 pfu/ml (so in the source), anti-M13-HRP/TMB.
Experiment [7] concerns the target T2, human CD96 (human). The experiment is described as follows: phage ELISA on coated CD96 (4 ug/ml), phage 1 x 10^11 pfu/ml, anti-M13-HRP/TMB.
Experiment [8] concerns the target T1, human TIGIT (human). The experiment is described as follows: phage ELISA on coated TIGIT (4 ug/ml), phage 5 x 10^10 pfu/ml, anti-M13-HRP/TMB.
Experiment [9] addresses T2, human CD96 (human). The experiment in a line: phage ELISA on coated CD96 (4 ug/ml), phage 7.5 x 10^8 pfu/ml, anti-M13-HRP/TMB.
Experiment [10] concerns the target T2, human CD96 (human). The experiment is described as follows: phage ELISA on coated CD96 (4 ug/ml), phage 1.5 x 10^9 pfu/ml, anti-M13-HRP/TMB.
For experiment [11], the target named is T1, human TIGIT (human). The experiment is described as follows: phage ELISA on coated TIGIT (4 ug/ml), phage 1 x 10^11 pfu/ml, anti-M13-HRP/TMB.
Experiment [12] has as its target T1, human TIGIT (human). The experiment is described as follows: phage ELISA on coated TIGIT (4 ug/ml), phage 0 pfu/ml (no phage, background), anti-M13-HRP/TMB.
Experiment [13] concerns the target T2, human CD96 (human). The experiment in a line: phage ELISA on coated CD96 (4 ug/ml), phage 1.2 x 10^10 pfu/ml, anti-M13-HRP/TMB.
Experiment [14] deals with T2, human CD96 (human). The experiment is described as follows: phage ELISA on coated CD96 (4 ug/ml), phage 3 x 10^9 pfu/ml, anti-M13-HRP/TMB.
Experiment [15] concerns the target T2, human CD96 (human). The experiment is described as follows: phage ELISA on coated CD96 (4 ug/ml), phage 3.7 x 10^8 pfu/ml, anti-M13-HRP/TMB.
For experiment [16], the target named is T1, human TIGIT (human). The experiment in a line: phage ELISA on coated TIGIT (4 ug/ml), phage 6 x 10^9 pfu/ml, anti-M13-HRP/TMB.
Experiment [17] concerns the target T1, human TIGIT (human). The experiment in a line: phage ELISA on coated TIGIT (4 ug/ml), phage 2.5 x 10^10 pfu/ml, anti-M13-HRP/TMB.
Experiment [18] has as its target T2, human CD96 (human). The experiment is described as follows: phage ELISA on coated CD96 (4 ug/ml), phage 0 pfu/ml (no phage, background), anti-M13-HRP/TMB.
Experiment [19] has as its target T2, human CD96 (human). The experiment in a line: phage ELISA on coated CD96 (4 ug/ml), phage 5 x 10^10 pfu/ml, anti-M13-HRP/TMB.
For experiment [20], the target named is T2, human CD96 (human). The experiment is described as follows: phage ELISA on coated CD96 (4 ug/ml), phage 2.5 x 10^10 pfu/ml, anti-M13-HRP/TMB.
The target of experiment [21] is T1, human TIGIT (human). The experiment in a line: phage ELISA on coated TIGIT (4 ug/ml), phage 9 x 10^7 pfu/ml, anti-M13-HRP/TMB.
The target of experiment [22] is T1, human TIGIT (human). The experiment in a line: phage ELISA on coated TIGIT (4 ug/ml), phage 3.7 x 10^8 pfu/ml, anti-M13-HRP/TMB.
Experiment [23] deals with T1, human TIGIT (human). The experiment in a line: phage ELISA on coated TIGIT (4 ug/ml), phage 1.2 x 10^10 pfu/ml, anti-M13-HRP/TMB.
Experiment [24] deals with T1, human TIGIT (human). The experiment is described as follows: phage ELISA on coated TIGIT (4 ug/ml), phage 7.5 x 10^8 pfu/ml, anti-M13-HRP/TMB.
The target in experiment [25] is BSA (UniProt P02769). The experiment is described as follows: phage ELISA on coated BSA, phage 3.7 x 10^8 pfu/ml, anti-M13-HRP/TMB.
UniProt P02769, sequence (P02769 25-607 limits assumed): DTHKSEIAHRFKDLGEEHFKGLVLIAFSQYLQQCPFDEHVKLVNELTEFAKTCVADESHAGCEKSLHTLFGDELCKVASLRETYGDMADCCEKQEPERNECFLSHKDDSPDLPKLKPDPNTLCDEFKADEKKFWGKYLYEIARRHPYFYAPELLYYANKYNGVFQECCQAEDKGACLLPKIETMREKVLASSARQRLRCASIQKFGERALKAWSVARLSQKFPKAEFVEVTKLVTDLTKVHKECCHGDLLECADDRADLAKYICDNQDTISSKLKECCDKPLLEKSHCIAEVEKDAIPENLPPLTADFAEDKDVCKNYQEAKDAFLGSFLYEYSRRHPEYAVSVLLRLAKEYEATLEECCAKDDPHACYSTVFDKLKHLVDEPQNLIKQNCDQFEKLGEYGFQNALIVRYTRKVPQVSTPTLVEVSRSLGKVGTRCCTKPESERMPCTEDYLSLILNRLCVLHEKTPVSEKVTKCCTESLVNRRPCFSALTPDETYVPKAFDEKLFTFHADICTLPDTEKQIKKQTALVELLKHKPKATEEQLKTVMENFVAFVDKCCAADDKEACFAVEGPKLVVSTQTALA
Experiment [26] deals with BSA (UniProt P02769). The experiment in a line: phage ELISA on coated BSA, phage 5 x 10^10 pfu/ml, anti-M13-HRP/TMB.
In experiment [27] the target is BSA (UniProt P02769). The experiment in a line: phage ELISA on coated BSA, phage 1.2 x 10^10 pfu/ml, anti-M13-HRP/TMB.
For experiment [28], the target named is BSA (UniProt P02769). The experiment in a line: phage ELISA on coated BSA, phage 0 pfu/ml (no phage, background), anti-M13-HRP/TMB.
Experiment [29] has as its target BSA (UniProt P02769). The experiment in a line: phage ELISA on coated BSA, phage 4.8 x 10^8 pfu/ml (so in the source), anti-M13-HRP/TMB.
Experiment [30] addresses BSA (UniProt P02769). The experiment in a line: phage ELISA on coated BSA, phage 7.5 x 10^8 pfu/ml, anti-M13-HRP/TMB.
The target in experiment [31] is BSA (UniProt P02769). The experiment is described as follows: phage ELISA on coated BSA, phage 9 x 10^7 pfu/ml, anti-M13-HRP/TMB.
For experiment [32], the target named is BSA (UniProt P02769). The experiment is described as follows: phage ELISA on coated BSA, phage 6 x 10^9 pfu/ml, anti-M13-HRP/TMB.
For experiment [33], the target named is BSA (UniProt P02769). The experiment is described as follows: phage ELISA on coated BSA, phage 1.5 x 10^9 pfu/ml, anti-M13-HRP/TMB.
Experiment [34] concerns the target BSA (UniProt P02769). The experiment is described as follows: phage ELISA on coated BSA, phage 1 x 10^11 pfu/ml, anti-M13-HRP/TMB.
Experiment [35] has as its target BSA (UniProt P02769). The experiment is described as follows: phage ELISA on coated BSA, phage 2.5 x 10^10 pfu/ml, anti-M13-HRP/TMB.
Experiment [36] deals with BSA (UniProt P02769). The experiment in a line: phage ELISA on coated BSA, phage 3 x 10^9 pfu/ml, anti-M13-HRP/TMB.

Regarding irrelevant phage, the phage ELISA signal in the experiment with human TIGIT (human) [1] was 0.04; with human CD96 (human) [2], 0.02; with human CD96 (human) [3], 0.03; in the experiment with human TIGIT (human) [4], 0.07; with human CD96 (human) [5], 0.08; with human TIGIT (human) [6], 0.03. The phage ELISA signal with human CD96 (human) [7] was found to be 0.59; with human TIGIT (human) [8], 0.31; with human CD96 (human) [9], 0.02; in the experiment with human CD96 (human) [10], 0.02; with human TIGIT (human) [11], 0.24; with human TIGIT (human) [12], 0.04. Besides, the phage ELISA signal with human CD96 (human) [13] is 0.08; with human CD96 (human) [14], 0.02; with human CD96 (human) [15], 0.01; with human TIGIT (human) [16], 0.09; with human TIGIT (human) [17], 0.25; with human CD96 (human) [18], 0.05. The phage ELISA signal was determined as 0.31 in the experiment with human CD96 (human) [19]; 0.18 in the experiment with human CD96 (human) [20]; 0.04 with human TIGIT (human) [21]; 0.03 with human TIGIT (human) [22]; 0.15 with human TIGIT (human) [23]; 0.03 with human TIGIT (human) [24].

B1: anti-CD96 clone G1 scFv (R7P1-G1), displayed on phage (scFv, part only; not given: linker, domain order, phage fusion, V domains shown, not shown: another chain or arm of the molecule; large carriers; small tags and cut ends)
VH: EVQLVESGGDLVKPAGSLRLSCVASGFPFSDSDMNWVRQAPGKGLQWVAGIDEGATDTGYADAVKGRFTISRDDAKNTLYLQMNSLRADDTAMYYCAAGGNFAYWGQGTLVTVSS
VL: DIVMTQTPLSLSVSPGEPASISCKASQSLLHSNGNTYLYWFRQKPGQSPQGLIYLVSKRFSWVPDRFSGSGSGTDFTLRISRVEADDAGLYYCGQGIQYPYTFSQGTKLEIK
Regarding B1, the phage ELISA signal is 0.63 with human CD96 (human) [2]; 0.38 with human CD96 (human) [3]; 2.28 in the experiment with human CD96 (human) [5]; 0.02 with BSA [25]; 0.04 with BSA [26]; 0.02 with BSA [27]. Besides, the phage ELISA signal was 0.05 with BSA [28]; 0.01 in the experiment with BSA [29]; 0.01 in the experiment with BSA [30]; 2.61 in the experiment with human CD96 (human) [7]; 1.36 in the experiment with human CD96 (human) [9]; 0.03 with BSA [31]. The phage ELISA signal in the experiment with human CD96 (human) [10] was 1.73; with BSA [32] it was 0.02; in the experiment with BSA [33], 0.02; in the experiment with BSA [34], 0.06; with human CD96 (human) [13], 2.59; in the experiment with human CD96 (human) [14] it was 2.11. Also, the phage ELISA signal in the experiment with human CD96 (human) [15] came to 0.95; with BSA [35], 0.03; in the experiment with BSA [36], 0.02; in the experiment with human CD96 (human) [18] it was 0.05; with human CD96 (human) [19], 2.68; in the experiment with human CD96 (human) [20], 2.65.

B2: anti-TIGIT clone C2 scFv (R8P1-C2), displayed on phage (scFv, part only; not given: linker, domain order, phage fusion, V domains shown, not shown: another chain or arm of the molecule; large carriers; small tags and cut ends)
VH: GVQLVESGGDLVKPAGSLRLSCVASGFTFSNYGMSWVRQAPGKGLQWVASIASGGSATAYADAVKGRFTLSRDDAKNTLYLQMNNLRTEDTSMYYCVAPGFQYWGQGTLVTVSS
VL: DIVMTQTPLSLSVSPGETASISCKASQSLLHSNGNTYLFWFRQKSGQSPQRLIYKVSNRDPGVPDRLSGSGSGTDFTLRISRVEADDAGVYYCGQGIQIPRTFGQGTKLEIK
For B2, the phage ELISA signal was determined as 2.34 in the experiment with human TIGIT (human) [1]; 2.52 with human TIGIT (human) [4]; 1.21 in the experiment with human TIGIT (human) [6]; 0.02 with BSA [25]; 0.04 in the experiment with BSA [26]; 0.04 with BSA [27]. For the same molecule, the phage ELISA signal with BSA [28] is 0.04; with BSA [29] it was 0.02; with BSA [30], 0.01; in the experiment with human TIGIT (human) [8] it was 2.53; in the experiment with BSA [31], 0.03; with human TIGIT (human) [11], 2.05. The phage ELISA signal with human TIGIT (human) [12] was determined as 0.03; with BSA [32], 0.03; in the experiment with BSA [33], 0.02; with BSA [34], 0.07; with human TIGIT (human) [16] it was 2.58; with BSA [35], 0.04. Further, the phage ELISA signal with BSA [36] is 0.02; with human TIGIT (human) [17], 2.66; with human TIGIT (human) [21], 0.79; with human TIGIT (human) [22], 1.61; in the experiment with human TIGIT (human) [23], 2.54; in the experiment with human TIGIT (human) [24], 1.99.
